Data from FireProtDB (doi:10.1074/jbc.273.32.19982).

B1: DNA-binding protein HU 1, P08821 (parent)
chain: MNKTELINAVAEASELSKKDATKAVDSVFDTILDALKNGDKIQLIGFGNFEVRERSARKGRNPQTGEEIEIPASKVPAFKPGKALKDAVAGK
B2: DNA-binding protein HU, P0A3H0 (parent)
chain: MNKTELINAVAETSGLSKKDATKAVDAVFDSITEALRKGDKVQLIGFGNFEVRERAARKGRNPQTGEEMEIPASKVPAFKPGKALKDAVK

Key:
[1] = variants of: B1; conditions: Bacillus subtilis (strain 168), pH 7, Thermal, CD, Sodium phosphate 5 mM, NaCl 0.2 M, reversible: yes, whole UniProt chain shown; for ddG of mutation (higher = less stable): 48.6 °C
[2] = variants of: B2; conditions: Geobacillus stearothermophilus, pH 7, Thermal, structure 1HUE, whole UniProt chain shown; for ddG of mutation (higher = less stable): 63.9 °C
[3] = CD, Sodium phosphate 5 mM, NaCl 0.2 M, reversible: yes

Variant | ddG of mutation (higher = less stable) [1] [kcal/mol] | Tm [1] [°C] | change of melting temperature, mutant - wild type (higher = more stable) [1] [°C] | ddG of mutation (higher = less stable) [2, 3] [kcal/mol] | Tm [2, 3] [°C] | change of melting temperature, mutant - wild type (higher = more stable) [2, 3] [°C] | unfolding enthalpy (van 't Hoff) [2, 3] [kcal/mol] | Tm ([2]; DSC, phosphate 0.05 M) [°C] | change of melting temperature, mutant - wild type (higher = more stable) ([2]; DSC, phosphate 0.05 M) [°C]
MNKTELINAVAEASELSKKDATKAVDSVFDTILEALKKGDKIQLIGFGNFEVRERSARKGRNPQTGEEIEIPASKVPAFKPGKALKDAVAGK | -0.45 | 52.1 | 3.5 | – | – | – | – | – | –
MNKTELINAVAEASGLSKKDATKAVDAVFDTILEALKKGDKVQLIGFGNFEVRERSARKGRNPQTGEEIEIPASKVPAFKPGKALKDAVAGK | -2.98 | 71.3 | 22.7 | – | – | – | – | – | –
MNKTELINAVAEASELSKKDATKAVDSVFDTILDALKNGDKVQLIGFGNFEVRERSARKGRNPQTGEEIEIPASKVPAFKPGKALKDAVAGK | – | 52.6 | 4 | – | – | – | – | – | –
MNKTELINAVAEASELSKKDATKAVDAVFDTILDALKNGDKIQLIGFGNFEVRERSARKGRNPQTGEEIEIPASKVPAFKPGKALKDAVAGK | -0.73 | 54.2 | 5.6 | – | – | – | – | – | –
MNKTELINAVAEASGLSKKDATKAVDSVFDTILDALKNGDKIQLIGFGNFEVRERSARKGRNPQTGEEIEIPASKVPAFKPGKALKDAVAGK | -1.55 | 60.4 | 11.8 | – | – | – | – | – | –
MNKTELINAVAETSGLSKKDATKAVDAVFDSITEALRKGDKVQLIGFGNFEVRERAARKGRNPQTGEEIEIPASKVPAFKPGKALKDAVK | – | – | – | 0 | 63.9 | 0 | 79.2 | – | –
MNKTELINAVAETSELSKKDATKAVDAVFDSITEALRKGDKVQLIGFGNFEVRERAARKGRNPQTGEEMEIPASKVPAFKPGKALKDAVK | – | – | – | – | 54 | -9.9 | – | 55.7 | -10.1
MNKTELINAVAETSGLSKKDATKAVDAVFDSITDALRKGDKVQLIGFGNFEVRERAARKGRNPQTGEEMEIPASKVPAFKPGKALKDAVK | – | – | – | – | 61.6 | -2.3 | – | 63.5 | -2.3
MNKTELINAVAETSGLSKKDATKAVDSVFDSITEALRKGDKVQLIGFGNFEVRERAARKGRNPQTGEEMEIPASKVPAFKPGKALKDAVK | – | – | – | – | 58.4 | -5.5 | 76.5 | – | –
MNKTELINAVAETSGLSKKDATKAVDAVFDSITEALRKGDKIQLIGFGNFEVRERAARKGRNPQTGEEMEIPASKVPAFKPGKALKDAVK | – | – | – | 0.82 | 60.1 | -3.8 | 54.7 | 59.6 | -6.2
MNKTELINAVAETSGLSKKDATKAVDAVFDSITEALRKGDKVQLIGFGNFEVRERSARKGRNPQTGEEMEIPASKVPAFKPGKALKDAVK | – | – | – | 0.13 | 63.3 | -0.6 | 83 | – | –
MNKTELINAVAETSGLSKKDATKAVDAVFDSITEALRNGDKVQLIGFGNFEVRERAARKGRNPQTGEEMEIPASKVPAFKPGKALKDAVK | – | – | – | – | 61.5 | -2.4 | – | 61.7 | -4.1
MNKTELINAVAETSGLSKKDATKAVDAVFDTITEALRKGDKVQLIGFGNFEVRERAARKGRNPQTGEEMEIPASKVPAFKPGKALKDAVK | – | – | – | -0.41 | 65.8 | 1.9 | 81.1 | – | –
